Experimental findings from paper PMC4829425 are described below.

The target of experiment [1] is VEGFR-2 EC+TM-(GGS)5-YFP or -mCherry (human) (UniProt P35968).
Experiment [2] has as its target full length wild-type human VEGFR-2 (human) (UniProt P35968).
Experiment [3] addresses VEGFR-2 EC(C482R)+TM(N762I-V769I-G770I)-(GGS)5-YFP or -mCherry (human) (UniProt P35968). Put plainly: FRET or BRET; QI-FRET between YFP- and mCherry-tagged copies in single plasma membrane-derived vesicles of co-transfected CHO cells, no ligand; monomer-dimer equilibrium model, dimer to monomers; two-dimensional concentrations (receptors per square micron). A general note: In BRET a luciferase serves as donor, and the signal depends on an acceptor being close.

For experiment [4], the target named is VEGFR-2 EC(C482R)+TM-(GGS)5-YFP or -mCherry (human) (UniProt P35968). The experiment is described as follows: FRET or BRET; QI-FRET in CHO plasma membrane-derived vesicles with 3 ug/ml VEGF-A121, 1 hr at room temperature.
Experiment [5] shares this target. The experiment is described as follows: FRET or BRET; QI-FRET between YFP- and mCherry-tagged copies in single plasma membrane-derived vesicles of co-transfected CHO cells, no ligand; monomer-dimer equilibrium model, dimer to monomers; two-dimensional concentrations (receptors per square micron).
The target in experiment [6] is VEGFR-2 EC+TM(E764I-T771I-F778I)-(GGS)5-YFP or -mCherry (human) (UniProt P35968). The experiment is described as follows: FRET or BRET; QI-FRET in CHO plasma membrane-derived vesicles with 3 ug/ml VEGF-A121, 1 hr at room temperature.
Experiment [7] shares this target. The experiment is described as follows: FRET or BRET; QI-FRET between YFP- and mCherry-tagged copies in single plasma membrane-derived vesicles of co-transfected CHO cells, no ligand; monomer-dimer equilibrium model, dimer to monomers; two-dimensional concentrations (receptors per square micron).
Experiment [8] addresses VEGFR-2 EC+TM(N762I-V769I-G770I)-(GGS)5-YFP or -mCherry (human) (UniProt P35968). The experiment is described as follows: FRET or BRET; QI-FRET in CHO plasma membrane-derived vesicles with 3 ug/ml VEGF-A121, 1 hr at room temperature.
Experiment [9] concerns the target VEGFR-2 EC+TM-(GGS)5-YFP or -mCherry (human) (UniProt P35968). Put plainly: FRET or BRET; QI-FRET in CHO plasma membrane-derived vesicles with 3 ug/ml VEGF-E, 1 hr at room temperature.
The target is the same in experiment [10]. Put plainly: FRET or BRET; QI-FRET in CHO plasma membrane-derived vesicles with 3 ug/ml VEGF-D, 1 hr at room temperature.
The target is the same in experiment [11]. The experiment is described as follows: FRET or BRET; QI-FRET in CHO plasma membrane-derived vesicles with 3 ug/ml VEGF-A121, 1 hr at room temperature.
Experiment [12] has the same target. The experiment is described as follows: FRET or BRET; QI-FRET in CHO plasma membrane-derived vesicles with 3 ug/ml VEGF-A165b, 1 hr at room temperature.
The target is the same in experiment [13]. The experiment is described as follows: FRET or BRET; QI-FRET in CHO plasma membrane-derived vesicles with 3 ug/ml VEGF-A165a, 1 hr at room temperature.
Experiment [14] has the same target. Put plainly: FRET or BRET; QI-FRET in CHO plasma membrane-derived vesicles with 3 ug/ml VEGF-C, 1 hr at room temperature.

VEGF-E (ligand): in experiment [1], the Intrinsic FRET of the EC+TM dimer (YFP/mCherry) with 3 ug/ml ligand; 0.61 without ligand was found to be 0.44. In addition, the phosphorylation of full-length VEGFR-2 (Tyr 1175, Western blot) with 3 ug/ml ligand against no ligand in [2] is less than 10 fold.
In turn, “VEGFR-2 EC(C482R)+TM(N762I-V769I-G770I)-(GGS)5-YFP or -mCherry (from UniProt P35968 20-1356) (domain or fragment)” displayed a percent dimer in experiment [3] of 100%.
For “VEGFR-2 EC(C482R)+TM-(GGS)5-YFP or -mCherry (from UniProt P35968 20-1356) (domain or fragment)”, the percent dimer in experiment [4] and in experiment [5] was 100% in each case.
Take “VEGFR-2 EC+TM(E764I-T771I-F778I)-(GGS)5-YFP or -mCherry (from UniProt P35968 20-1356) (domain or fragment)”: the percent dimer in [6] and in experiment [7] was 100% each time.
On to “VEGFR-2 EC+TM(N762I-V769I-G770I)-(GGS)5-YFP or -mCherry (from UniProt P35968 20-1356) (domain or fragment)”, for which the percent dimer in experiment [8] was 100%.
Regarding “VEGFR-2 EC+TM-(GGS)5-YFP or -mCherry (from UniProt P35968 20-1356) (domain or fragment)”, the percent dimer in experiment [9], in experiment [10], in experiment [11], in experiment [12], in experiment [13] and in experiment [14] was 100% in each case.
“human VEGF-C (from UniProt P49767 112-227) (ligand)” had an Intrinsic FRET of the EC+TM dimer (YFP/mCherry) with 3 ug/ml ligand; 0.61 without ligand in experiment [1] of 0.45. The substance further displayed a phosphorylation of full-length VEGFR-2 (Tyr 1175, Western blot) with 3 ug/ml ligand against no ligand in experiment [2] of less than 10 fold.
For “human VEGF-D (from UniProt O43915 89-205) (ligand)”, in that order: 0.43 and less than 10 fold.
